# T1: GST-FD (Arabidopsis thaliana (Mouse-ear cress), UniProt Q84JK2)
# T1 chain: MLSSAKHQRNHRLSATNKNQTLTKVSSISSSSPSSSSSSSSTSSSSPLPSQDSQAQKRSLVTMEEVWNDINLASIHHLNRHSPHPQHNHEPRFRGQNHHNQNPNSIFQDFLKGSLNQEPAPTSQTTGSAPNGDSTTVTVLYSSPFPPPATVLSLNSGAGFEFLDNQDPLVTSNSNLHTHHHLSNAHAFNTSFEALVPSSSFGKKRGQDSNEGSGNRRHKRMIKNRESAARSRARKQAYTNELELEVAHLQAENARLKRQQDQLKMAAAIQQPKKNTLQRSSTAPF
# Molecular target: T1, GST-FD
# Assay: GST pull-down
row,binding result,Binder
1,binds,Trx-His-CPK6 (protein) MGNSCRGSFKDKIYEGNHSRPEENSKSTTTTVSSVHSPTTDQDFSKQNTNPALVIPVKEPIMRRNVDNQSYYVLGHKTPNIRDLYTLSRKLGQGQFGTTYLCTDIATGVDYACKSISKRKLISKEDVEDVRREIQIMHHLAGHKNIVTIKGAYEDPLYVHIVMELCAGGELFDRIIHRGHYSERKAAELTKIIVGVVEACHSLGVMHRDLKPENFLLVNKDDDFSLKAIDFGLSVFFKPGQIFKDVVGSPYYVAPEVLLKHYGPEADVWTAGVILYILLSGVPPFWAETQQGIFDAVLKGYIDFDTDPWPVISDSAKDLIRKMLCSSPSERLTAHEVLRHPWICENGVAPDRALDPAVLSRLKQFSAMNKLKKMALKVIAESLSEEEIAGLRAMFEAMDTDNSGAITFDELKAGLRRYGSTLKDTEIRDLMEAADVDNSGTIDYSEFIAATIHLNKLEREEHLVSAFQYFDKDGSGYITIDELQQSCIEHGMTDVFLEDIIKEVDQDNDGRIDYEEFVAMMQKGNAGVGRRTMKNSLNISMRDV
2,binds,Trx-His-CPK33 (protein) not shown

# From paper PMC4321167 (2015)
